From patent publication US10702592B2, “Peptides and combination of peptides for use in immunotherapy against NHL and other cancers” (Immatics Biotechnologies GmbH, priority 2016, dated 2020)

Target: HLA-A*02:01 (Homo sapiens, UniProt P04439, D140Y/D185E/D98H/E176V/E277Q/G131W/G231S/I119V/I121R/I166T/I218V/L300P/L318F/N151K/N90K/P208A/P217A/Q86G/Q94H/R138H/R169H/T345S)
Test: MHC binding assay (UV-ligand exchange, beta2m ELISA)
Conditions: binding to HLA-A*02:01, UV-ligand exchange
Description: Candidate peptides for T cell based therapies according to the present invention were further tested for their MHC binding capacity (affinity). The individual peptide-MHC complexes were produced by UV-ligand exchange, where a UV-sensitive peptide is cleaved upon UV-irradiation, and exchanged with the peptide of interest as analyzed. Only peptide candidates that can effectively bind and stabilize the peptide-receptive MHC molecules prevent dissociation of the MHC complexes. To determine the yield of the exchange reaction, an ELISA was performed based on the detection of the light chain (β2m) of stabilized MHC complexes. The assay was performed as generally described in Rodenko et al. (Rodenko et al., 2006).
96 well MAXISorp plates (NUNC) were coated over night with 2 ug/ml streptavidin in PBS at room temperature, washed 4× and blocked for 1 h at 37° C. in 2% BSA containing blocking buffer. Refolded HLA-A*02:01/MLA-001 monomers served as standards, covering the range of 15-500 ng/ml. Peptide-MHC monomers of the UV-exchange reaction were diluted 100 fold in blocking buffer. Samples were incubated for 1 h at 37° C., washed four times, incubated with 2 ug/ml HRP conjugated anti-β2m for 1 h at 37° C., washed again and detected with TMB solution that is stopped with […]. Absorption was measured at 450 nm. Candidate peptides that show a high exchange yield (preferably higher than 50%, most preferred higher than 75%) are generally preferred for a generation and production of antibodies or fragments thereof, and/or T cell receptors or fragments thereof, as they show sufficient avidity to the MHC molecules and prevent dissociation of the MHC complexes.

Row | Peptide exchange (MHC class I binding score, peptide exchange yield) | Substance
1 | “+++” (≥50 = +++) | 263 (GLMDNEIKV; listed as Homo sapiens) [compound 263]
2 | “+++” (≥50 = +++) | 164 (SLFDGAVISTV; listed as Homo sapiens) [compound 164]
3 | “+++” (≥50 = +++) | 246 (KLPVPLESV; listed as Homo sapiens) [compound 246]
4 | “++++” (≥75% = ++++) | 281 (TLQTVPLTTV; listed as Homo sapiens) [compound 281]
5 | “+++” (≥50 = +++) | 210 (FLAEQFEFL; listed as Homo sapiens) [compound 210]
6 | “++” (≥20% = ++) | 228 (IIAEYLSYV; listed as Homo sapiens) [compound 228]
7 | “+++” (≥50 = +++) | 186 (FLDVSRDFV; listed as Homo sapiens) [compound 186]
8 | “++++” (≥75% = ++++) | 173 (VILDSVASV; listed as Homo sapiens) [compound 173]
9 | “+++” (≥50 = +++) | 58 (QLAPFLPQL; listed as Homo sapiens) [compound 58]
10 | “+++” (≥50 = +++) | 307 (FLLPVAVKL; listed as Homo sapiens) [compound 307]
11 | “+++” (≥50 = +++) | 239 (VLIDDTVLL; listed as Homo sapiens) [compound 239]
12 | “+++” (≥50 = +++) | 292 (KLINSQISL; listed as Homo sapiens) [compound 292]
13 | “++++” (≥75% = ++++) | 31 (KLYDEESLL; listed as Homo sapiens) [compound 31]
14 | “+++” (≥50 = +++) | 301 (LQFDGIHVV; listed as Homo sapiens) [compound 301]
15 | “+++” (≥50 = +++) | 100 (RLIRTIAAI; listed as Homo sapiens) [compound 100]
16 | “+++” (≥50 = +++) | 129 (SLFEASQQL; listed as Homo sapiens) [compound 129]
17 | “++” (≥20% = ++) | 187 (FLNSFVFKM; listed as Homo sapiens) [compound 187]
18 | “+++” (≥50 = +++) | 107 (VQAVSIPEV; listed as Homo sapiens) [compound 107]
19 | “+++” (≥50 = +++) | 161 (NLMLELETV; listed as Homo sapiens) [compound 161]
20 | “+++” (≥50 = +++) | 299 (RLLEEEGVSL; listed as Homo sapiens) [compound 299]
21 | “++++” (≥75% = ++++) | 249 (VLLESLVEI; listed as Homo sapiens) [compound 249]

Row | Peptide exchange (MHC class I binding score, peptide exchange yield) | Substance
22 | “+++” (≥50 = +++) | 184 (AVLGTSWQL; listed as Homo sapiens) [compound 184]
23 | “+++” (≥50 = +++) | 39 (QLLPQGIVPAL; listed as Homo sapiens) [compound 39]
24 | “++” (≥20% = ++) | 14 (LLSDPTPGA; listed as Homo sapiens) [compound 14]
25 | “+++” (≥50 = +++) | 198 (GLLSAVSSV; listed as Homo sapiens) [compound 198]
26 | “+++” (≥50 = +++) | 32 (VLNEDELPSV; listed as Homo sapiens) [compound 32]
27 | “+++” (≥50 = +++) | 252 (YLGDLIMAL; listed as Homo sapiens) [compound 252]
28 | “+++” (≥50 = +++) | 144 (GLITQVDKL; listed as Homo sapiens) [compound 144]
29 | “+++” (≥50 = +++) | 156 (KMLEDDLKL; listed as Homo sapiens) [compound 156]
30 | “++” (≥20% = ++) | 152 (KIMYTLVSV; listed as Homo sapiens) [compound 152]
31 | “++++” (≥75% = ++++) | 274 (KLLNLISKL; listed as Homo sapiens) [compound 274]
32 | “++” (≥20% = ++) | 99 (QLYDGATALFL; listed as Homo sapiens) [compound 99]
33 | “+++” (≥50 = +++) | 290 (IASPVIAAV; listed as Homo sapiens) [compound 290]
34 | “+++” (≥50 = +++) | 244 (ILEPFLPAV; listed as Homo sapiens) [compound 244]
35 | “+++” (≥50 = +++) | 212 (FLIGQGAHV; listed as Homo sapiens) [compound 212]
36 | “+++” (≥50 = +++) | 205 (TLFYESPHL; listed as Homo sapiens) [compound 205]
37 | “++++” (≥75% = ++++) | 101 (SLDQSTWNV; listed as Homo sapiens) [compound 101]
38 | “+++” (≥50 = +++) | 278 (FLLFINHRL; listed as Homo sapiens) [compound 278]
39 | “+++” (≥50 = +++) | 189 (SLSHLVPAL; listed as Homo sapiens) [compound 189]
40 | “+++” (≥50 = +++) | 151 (ILVKQSPML; listed as Homo sapiens) [compound 151]
41 | “+++” (≥50 = +++) | 154 (KLMNIQQQL; listed as Homo sapiens) [compound 154]
42 | “++” (≥20% = ++) | 72 (TLQEETAVYL; listed as Homo sapiens) [compound 72]

Row | Peptide exchange (MHC class I binding score, peptide exchange yield) | Substance
43 | “++” (≥20% = ++) | 79 (AMKEEKEQL; listed as Homo sapiens) [compound 79]
44 | “+++” (≥50 = +++) | 176 (YLHIYESQL; listed as Homo sapiens) [compound 176]
45 | “+++” (≥50 = +++) | 83 (FLMDDNMSNTL; listed as Homo sapiens) [compound 83]
46 | “+++” (≥50 = +++) | 247 (KVLEMETTV; listed as Homo sapiens) [compound 247]
47 | “++++” (≥75% = ++++) | 200 (YLLDFEDRL; listed as Homo sapiens) [compound 200]
48 | “++” (≥20% = ++) | 273 (AILLPQPPK; listed as Homo sapiens) [compound 273]
49 | “+++” (≥50 = +++) | 90 (HLDEVFLEL; listed as Homo sapiens) [compound 90]
50 | “+++” (≥50 = +++) | 211 (FIDDLFAFV; listed as Homo sapiens) [compound 211]
51 | “+++” (≥50 = +++) | 116 (SLLDNLLTI; listed as Homo sapiens) [compound 116]
52 | “++” (≥20% = ++) | 220 (FLAEAPTAL; listed as Homo sapiens) [compound 220]
53 | “+++” (≥50 = +++) | 209 (FLLDTISGL; listed as Homo sapiens) [compound 209]
54 | “++” (≥20% = ++) | 87 (GLFARIIMI; listed as Homo sapiens) [compound 87]
55 | “++++” (≥75% = ++++) | 242 (GILDFZVFL; listed as Homo sapiens) [compound 242]
56 | “+++” (≥50 = +++) | 10 (FLLVGTQIDL; listed as Homo sapiens) [compound 10]
57 | “++++” (≥75% = ++++) | 303 (FVWEASHYL; listed as Homo sapiens) [compound 303]
58 | “++” (≥20% = ++) | 197 (YLLTDNVVKL; listed as Homo sapiens) [compound 197]
59 | “+++” (≥50 = +++) | 248 (NLLEQFILL; listed as Homo sapiens) [compound 248]
60 | “+++” (≥50 = +++) | 98 (MLQDGIARL; listed as Homo sapiens) [compound 98]
61 | “+++” (≥50 = +++) | 105 (VLTPVILQV; listed as Homo sapiens) [compound 105]
